Changes are numbered by the printed parent chain. Names may count otherwise.

Experiment [1] concerns the target T1, human CD137 expressed on cells (Jurkat human CD137 NF-kB luciferase reporter cells; human CD8+ T cells) (human, UniProt Q07011 24-255). Briefly: cell-based or functional assay.
The target of experiment [2] is T1, human CD137 expressed on cells (Jurkat …). Briefly: cell-based or functional assay. This is another data set of the same source.
Experiment [3] addresses T2, recombinant Fc-tagged ectodomain of human CD137 (Acro Biosystems 41B-H5258) (human, UniProt Q07011 24-186).
T2 construct: Bought protein; not shown: Fc tag
Briefly: SPR, Biacore 8K, single-cycle kinetics; Fc-tagged ectodomain captured on Protein G chip; 1:1 model. In short, it runs like this: (§1)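 Single-cycle kinetics: Humabody VH constructs injected 90 s at low to high nanomolar concentrations over captured Fc-tagged ectodomains. Surface regenerated with 10 mM glycine pH 1.5. Kinetics fitted to a 1:1 binding model, including two-PD-1-arm constructs.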

In experiment [4] the target is T3, recombinant Fc-tagged ectodomain of human PD1 (Acro Biosystems PD1-H5257) (human, UniProt Q15116 25-170).
T3 construct: Bought protein; not shown: Fc tag
The experiment is described as above. In short, it runs like this:
as §1

Experiment [5] addresses T4, recombinant Fc-tagged ectodomain of cynomolgus CD137 (R&D S9324-4b) (cynomolgus macaque, UniProt A9YYE7 24-186).
T4 construct: Bought protein; also called Cyno CD137; cynomolgus macaque CD137; not shown: Fc tag and any linker to it
The experiment is described as above. The method in brief:
as §1

Experiment [6] deals with T5, recombinant Fc-tagged ectodomain of cynomolgus PD1 (Acro Biosystems PD1-C5254) (cynomolgus macaque, UniProt B0LAJ3 25-170).
T5 construct: Bought protein; also called Cyno PD1; cynomolgus macaque PD1; not shown: Fc tag and any linker to it
The experiment is described as above. The method in brief: as §1

In experiment [7] the target is T6, human CD137 expressed on CHO cells (human, UniProt Q07011 18-255).
T6 construct: also called CHO huCD137; CHO human CD137 cells
Description: FMAT/Mirrorball on CHO huCD137 cells. In short, it runs like this:
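His-tagged VH molecules bound to CHO cells expressing human PD-1 or human CD137, with CHO parent cells as control, in PBS pH 7.4, 0.1% BSA, 0.05% sodium azide. Read by FMAT on Mirrorball (ex 488/640 nm); binding taken as FL2 median fluorescence intensity of FL5-gated events.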

In experiment [8] the target is human CD40 (R&D Systems cat no. CDO-H5253) (human, UniProt P25942 21-193, limits assumed). Briefly: ELISA, plate-coated human CD40; legend: No binding (-). The procedure:
(§2) Specificity of binding for CD137 over the tumour necrosis factor receptor family members OX40, GITR (Glucocorticoid-induced TNFR-related), CD40 and HVEM was determined using an ELISA assay. Nunc Maxisorp plates were coated with 1 ug/ml human CD137-Fc recombinant protein (Acro Biosystems 41B-H5258), human GITR-Fc (R&D Systems cat no. 689-GR) human OX40-Fc (R&D Systems cat no. 3388-OX), human CD40 (R&D Systems cat no. CDO-H5253), human HVEM (R&D Systems cat no. HVM-H5258) in PBS overnight at 4° C. then washed twice with PBS. Non-specific protein interactions were blocked by incubation with 1% (w/v) skimmed milk powder (Marvel®) in PBS/0.1% Tween-20 for 1 hour at room temperature. Plates were washed twice with PBS then VH or antibody control (1 ug/ml) added for 1 hour at room temperature. Following three washes with PBS/0.1% Tween-20 a 1:1000 dilution of anti His-HRP (VH detection) or anti mouse-HRP (positive control mouse monoclonal antibody detection) was added in 1% Marvel/PBS/0.1% Tween-20. The detection antibodies were allowed to bind for 1 hour at room temperature then the plates were washed twice in PBS/0.1% Tween-20 and once in PBS. The ELISA was developed using TMB substrate and the reaction was stopped by the addition of 50 ul 0.5M H₂SO₄ solution. The absorbance at 450 nm was measured using the BMG Pherastar.
In general terms: ELISA stands for enzyme-linked immunosorbent assay.

Experiment [9] has as its target T7, human HVEM (R&D Systems cat no. HVM-H5258) (human, UniProt Q92956 39-202, limits assumed).
T7 sequence (looked up): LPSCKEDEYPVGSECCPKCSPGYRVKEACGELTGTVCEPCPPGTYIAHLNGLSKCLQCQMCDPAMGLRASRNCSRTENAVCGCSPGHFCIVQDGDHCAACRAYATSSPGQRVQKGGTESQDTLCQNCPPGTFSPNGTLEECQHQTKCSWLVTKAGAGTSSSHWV
Briefly: ELISA, plate-coated human HVEM; legend: No binding (-). The procedure: as §2

Experiment [10] has as its target T8, human GITR-Fc (R&D Systems cat no. 689-GR) (human, UniProt Q9Y5U5 26-161).
T8 construct: also called Glucocorticoid-induced TNFR-related
T8 sequence (looked up): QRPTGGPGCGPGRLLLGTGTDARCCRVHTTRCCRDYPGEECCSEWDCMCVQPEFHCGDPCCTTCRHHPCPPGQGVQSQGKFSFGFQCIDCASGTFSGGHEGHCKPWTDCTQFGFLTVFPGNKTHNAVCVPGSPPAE
Briefly: ELISA, plate-coated human GITR-Fc; legend: No binding (-). As for the experimental part: as §2

In experiment [11] the target is T9, human OX40-Fc (R&D Systems cat no. 3388-OX) (human, UniProt P43489 29-216, limits assumed).
T9 sequence (looked up): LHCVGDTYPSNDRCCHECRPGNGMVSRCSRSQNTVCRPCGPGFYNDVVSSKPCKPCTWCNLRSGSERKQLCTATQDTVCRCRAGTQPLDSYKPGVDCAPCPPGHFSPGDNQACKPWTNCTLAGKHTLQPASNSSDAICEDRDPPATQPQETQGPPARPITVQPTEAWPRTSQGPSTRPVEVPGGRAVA
Briefly: ELISA, plate-coated human OX40-Fc; legend: No binding (-). The procedure: as §2

Experiment [12] concerns the target T10, Rhesus CD137-Fc tagged protein (rhesus, UniProt H9Z8K9 24-186).
T10 construct: extracellular domain; The Octet paragraph gives no catalogue number; also called rhCD137-Fc
Description: BLI (Octet RED384), CD137-Fc on Protein G sensor, 1:1 model. The procedure:
(§3) Binding kinetics of purified monovalent VH molecules were measured on a ForteBio Octet RED 384 instrument. Human and Rhesus CD137-Fc tagged protein was diluted to 5 μg/ml in kinetics buffer (0.05% Tween, 1×PBS) and coupled to Protein G biosensors (ForteBio cat no. 18-5082) via the Fc tag. VH were serially diluted (typically 1:2 dilution series starting with 200 nM, VH at the highest concentration) and binding to the CD137-Fc-coupled Protein G biosensors measured. Binding kinetics were determined from the (blank subtracted) sensor gram trace using 1:1 binding models and ForteBio Octet Data Analysis 9.0 software. Example kinetic and binding affinity data obtained is shown Table 18 (monovalent VH).

Experiment [13] addresses T11, full-length rhesus CD137 (Sino Biologics 90847-K02H), huFc tag (rhesus, UniProt F6W5G6 24-186).
T11 construct: Bought protein; also called rhCD137-Fc; Rhesus CD137-Fc tagged protein; not shown: human Fc tag (huFc) and any linker to it
Description: BLI (ForteBio Octet RED 384), CD137-Fc on Protein G biosensors, 1:1 model. The procedure:
as §3

Sequence of human CD40 (R&D Systems cat no. CDO-H5253) (P25942 21-193 limits assumed): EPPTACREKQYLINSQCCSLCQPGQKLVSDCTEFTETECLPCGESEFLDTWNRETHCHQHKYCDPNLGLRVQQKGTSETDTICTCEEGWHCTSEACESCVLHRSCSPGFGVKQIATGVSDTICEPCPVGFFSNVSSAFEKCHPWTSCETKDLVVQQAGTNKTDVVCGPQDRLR

B1: TPP-1290 PD138G7(G109D)-6GS-CD137A-6GS-HSA2 (bispecific antibody)
chain: EVQLVESGGGVVRPGGSLRLSCAASGFTFDDYAMSWVRQAPGKGLEWVSGITWNGGSTGYADSVKDRFTISRDNAKNSLYLQMNSLRAEDTALYYCVRDKYSYAWSYDDFDIWGQGTMVTVSSGGGGSGGGGSGGGGSGGGGSGGGGSGGGGSEVQLVESGGGLVQPGGSLRLSCAASGFTLSNYWMNWVRQAPGKGLEWVANINQDGSERYYVDSVKGRFTISRDNAKNSLYLQMNSLRAEDTAVYYCARGGEGYGVDHYGLDVSGQGTTVTVSSGGGGSGGGGSGGGGSGGGGSGGGGSGGGGSEVQLVESGGGLVKPGGSLRLSCAASGFTFSNYNMNWVRQAPGKGLEWVSSISSAGTHIYYADSVKGRFTISRDNAKNSLYLQMNSLRAEDTAVYYCARDPHSTGWYKDFDYWGQGTLVTVSS
Regarding B1, the “Jurkat-CD137/CHO-PD-1 Reporter Assay EC50” value in [1] is 0.02 nM. In addition, in [2], the “CD8+ T-cell activation assay - IL-2 release, EC50” value (from here on “CD8+ T-cell activation assay”) worked out at 0.199 nM. Also, the Kd (as a rule, the concentration at which binding is half-saturated) in [3] amounted to 0.652 nM; in experiment [4], 7.07 nM; in [5], 1.03 nM; in experiment [6] it was 17.4 nM. In addition, the koff – broadly, the first-order rate constant of dissociation – in experiment [3] stood at 0.000185 s⁻¹; in [4], 0.00244 s⁻¹; in [5], 0.000255 s⁻¹; in experiment [6] it was 0.00539 s⁻¹. For the same molecule, the kon (in general, a measure of how fast the partners come together) in experiment [3] came to 283000 M⁻¹ s⁻¹; in experiment [4] it was 345000 M⁻¹ s⁻¹; in [5], 247000 M⁻¹ s⁻¹; in experiment [6], 310000 M⁻¹ s⁻¹.

B2: TPP-1293 (PDBlocker1.92-6GS-CD137A-6GS-HSA2) (bispecific antibody)
chain: EVQLVESGGGLVKPGGSLRLSCAASGFTFSDESMTWMRQAPGKGLEWVSYISSGGGVKFYADSVKGRFTISRDNAKNSLYLQMNSLRAEDTAVYYCAREAPLRLGESPHDAFDISGQGTMVTVSSGGGGSGGGGSGGGGSGGGGSGGGGSGGGGSEVQLVESGGGLVQPGGSLRLSCAASGFTLSNYWMNWVRQAPGKGLEWVANINQDGSERYYVDSVKGRFTISRDNAKNSLYLQMNSLRAEDTAVYYCARGGEGYGVDHYGLDVSGQGTTVTVSSGGGGSGGGGSGGGGSGGGGSGGGGSGGGGSEVQLVESGGGLVKPGGSLRLSCAASGFTFSNYNMNWVRQAPGKGLEWVSSISSAGTHIYYADSVKGRFTISRDNAKNSLYLQMNSLRAEDTAVYYCARDPHSTGWYKDFDYWGQGTLVTVSS
notes: The chain is therefore built from the parts named in the composition
For the molecule B2, the “Jurkat-CD137/CHO-PD-1 Reporter Assay EC50” value in [1] is 0.0113 nM. For the same molecule, in experiment [2], the “CD8+ T-cell activation assay” value was 0.146 nM. Also, the Kd in [3] came out at 2.57 nM; in experiment [4], 2.31 nM; in [5] it was 4.34 nM; in experiment [6], 3.41 nM. In addition, the koff in [3] stood at 0.000151 s⁻¹; in [4], 0.000212 s⁻¹; in experiment [5], 0.000226 s⁻¹; in experiment [6] it was 0.000407 s⁻¹. Besides, the kon turned out to be 58600 M⁻¹ s⁻¹ in experiment [3], 91500 M⁻¹ s⁻¹ in experiment [4], 52200 M⁻¹ s⁻¹ in experiment [5] and 119000 M⁻¹ s⁻¹ in experiment [6].

B3: TPP-1246 CD137A-6GS-HSA2-6GS-PD138G7(G109D) (bispecific antibody)
chain: EVQLVESGGGLVQPGGSLRLSCAASGFTLSNYWMNWVRQAPGKGLEWVANINQDGSERYYVDSVKGRFTISRDNAKNSLYLQMNSLRAEDTAVYYCARGGEGYGVDHYGLDVSGQGTTVTVSSGGGGSGGGGSGGGGSGGGGSGGGGSGGGGSEVQLVESGGGLVKPGGSLRLSCAASGFTFSNYNMNWVRQAPGKGLEWVSSISSAGTHIYYADSVKGRFTISRDNAKNSLYLQMNSLRAEDTAVYYCARDPHSTGWYKDFDYWGQGTLVTVSSGGGGSGGGGSGGGGSGGGGSGGGGSGGGGSEVQLVESGGGVVRPGGSLRLSCAASGFTFDDYAMSWVRQAPGKGLEWVSGITWNGGSTGYADSVKDRFTISRDNAKNSLYLQMNSLRAEDTALYYCVRDKYSYAWSYDDFDIWGQGTMVTVSS
For B3, the “Jurkat-CD137/CHO-PD-1 Reporter Assay EC50” value in [1] came to 0.0729 nM. In addition, the “CD8+ T-cell activation assay” value in experiment [2] was determined as 0.176 nM. Further, the Kd is 0.541 nM in [3], 8.38 nM in experiment [4], 0.842 nM in experiment [5] and 20.5 nM in experiment [6]. The koff in [3] is 0.000187 s⁻¹; in experiment [4] it was 0.00202 s⁻¹; in experiment [5] it was 0.000267 s⁻¹; in [6], 0.00464 s⁻¹. Also, the kon stood at 345000 M⁻¹ s⁻¹ in experiment [3], 241000 M⁻¹ s⁻¹ in experiment [4], 317000 M⁻¹ s⁻¹ in experiment [5] and 227000 M⁻¹ s⁻¹ in experiment [6].

B4: 003BB172-E01 (VHH)
VHH: EVQLVESGGGLVQPGGSLRLSCAASGFTFSNYGMHWVRQAPGKRLEWVAVISNDGNTKTYADSVKGRFTISRDNSKNMLYLQMTSLRTEDTAVYYCAQDETTTVTASYYFDYWGQGTLVTVSS
notes: also called 003BB1172-E01
In the case of B4, it took 1.73 nM to reach a half-maximal effect in [7] (EC50). Also, the binding result in experiment [8], in [9], in [10] and in experiment [11] was “no binding (tested: 1 ug/ml)” in each case. Besides, in experiment [12], the Kd is 27.5 nM. Moreover, the koff in experiment [12] is 0.00131 s⁻¹. Also, the kon in [12] amounted to 47800 M⁻¹ s⁻¹.

B5: 003BB172-E01-5 (VHH)
VH: B4 VHH with M78T, T84N
notes: Human VH single domain antibody, His-tagged in the assays; not shown: C-terminal 6xHIS tag
On to B5, for which, in experiment [13], the Kd is 11.5 nM.

B6: 003BB172-E01-8 (VHH)
VHH: B4 VHH with L11V, R44G, M78T, T84N
notes: as for B5
As to B6, the dissociation constant (Kd) in experiment [13] was determined as 41.4 nM.
